Reference: publication PMC10097714, “ALS-linked TDP-43 mutations interfere with the recruitment of RNA recognition motifs to G-quadruplex RNA”

Tests used:
[1] = target: His-tagged RRM segment of TDP-43 (101-261aa) (UniProt Q13148); assay: GST pull-down (glutathione sepharose beads) with western blotting, band quantification; conditions: three experiments, parent: est. 1.0, read off a plot
GST-RRM [2] = target: T1, GST-RRM (human, UniProt Q13148 101-261); assay: EMSA (agarose); higher affinity than CaMKIIa G4; EMSA: 20 mM PIPES-NaOH pH 6.8, 150 mM NaCl, 0.8 mM MgCl2, 10% glycerol, 0.1 mg/ml BSA, 0.1 mg/ml poly-dI-dC, 25 C, gel 0.5x TBE pH 6.8; SPR: 20 mM PIPES pH 6.8, 12 mM KCl, 0.8 mM MgCl2, 150 mM NaCl, 0.05% Tween-20, 25 C; UV cross-linking: EMSA buffer without poly-dI-dC; pull-down: PIPES pH 6.8, 145 mM NaCl, 5.4 mM KCl, 0.8 mM MgCl2, 1.8 mM CaCl2, 0.05% Tween-20, 10% …; conditions: protein: recombinant; tags: GST; label: 5' Cy3, 3' Alexa Fluor 647; parallel G4, A loop
TDP-43 WT full-length [3] = target: T2, TDP-43 WT full-length (human, UniProt Q13148 1-414); assay: EMSA (agarose); EMSA: 20 mM PIPES-NaOH pH 6.8, 150 mM NaCl, 0.8 mM MgCl2, 10% glycerol, 0.1 mg/ml BSA, 0.1 mg/ml poly-dI-dC, 25 C, gel 0.5x TBE pH 6.8; SPR: 20 mM PIPES pH 6.8, 12 mM KCl, 0.8 mM MgCl2, 150 mM NaCl, 0.05% Tween-20, 25 C; UV cross-linking: EMSA buffer without poly-dI-dC; pull-down: PIPES pH 6.8, 145 mM NaCl, 5.4 mM KCl, 0.8 mM MgCl2, 1.8 mM CaCl2, 0.05% Tween-20, 10% glycerol, 4 C; conditions: protein: recombinant; tags: untagged; chain copies: 2; label: 5' Cy3, 3' Alexa Fluor 647; parallel G4, A loop
TDP-43 WT full-length [4] = target: T2, TDP-43 WT full-length; assay: EMSA (agarose); lower affinity than PSD-95 G4; EMSA: 20 mM PIPES-NaOH pH 6.8, 150 mM NaCl, 0.8 mM MgCl2, 10% glycerol, 0.1 mg/ml BSA, 0.1 mg/ml poly-dI-dC, 25 C, gel 0.5x TBE pH 6.8; SPR: 20 mM PIPES pH 6.8, 12 mM KCl, 0.8 mM MgCl2, 150 mM NaCl, 0.05% Tween-20, 25 C; UV cross-linking: EMSA buffer without poly-dI-dC; pull-down: PIPES pH 6.8, 145 mM NaCl, 5.4 mM KCl, 0.8 mM MgCl2, 1.8 mM CaCl2, 0.05% Tween-20, 10% …; conditions: protein: recombinant; tags: untagged; chain copies: 2; label: 5' Cy3, 3' Alexa Fluor 647; parallel G4
GST-RRM [5] = target: T1, GST-RRM; assay: as above; conditions: protein: recombinant; tags: GST; label: 5' Cy3, 3' Alexa Fluor 647; parallel G4
TDP-43 WT full-length [6] = target: T2, TDP-43 WT full-length; assay: EMSA (agarose); up to 10x protein; EMSA: 20 mM PIPES-NaOH pH 6.8, 150 mM NaCl, 0.8 mM MgCl2, 10% glycerol, 0.1 mg/ml BSA, 0.1 mg/ml poly-dI-dC, 25 C, gel 0.5x TBE pH 6.8; SPR: 20 mM PIPES pH 6.8, 12 mM KCl, 0.8 mM MgCl2, 150 mM NaCl, 0.05% Tween-20, 25 C; UV cross-linking: EMSA buffer without poly-dI-dC; pull-down: PIPES pH 6.8, 145 mM NaCl, 5.4 mM KCl, 0.8 mM MgCl2, 1.8 mM CaCl2, 0.05% Tween-20, 10% glycerol, 4 C; conditions: protein: recombinant; tags: untagged; chain copies: 2; label: 3' Alexa Fluor 647
GST-RRM [7] = target: T1, GST-RRM; assay: EMSA (agarose); EMSA: 20 mM PIPES-NaOH pH 6.8, 150 mM NaCl, 0.8 mM MgCl2, 10% glycerol, 0.1 mg/ml BSA, 0.1 mg/ml poly-dI-dC, 25 C, gel 0.5x TBE pH 6.8; SPR: 20 mM PIPES pH 6.8, 12 mM KCl, 0.8 mM MgCl2, 150 mM NaCl, 0.05% Tween-20, 25 C; UV cross-linking: EMSA buffer without poly-dI-dC; pull-down: PIPES pH 6.8, 145 mM NaCl, 5.4 mM KCl, 0.8 mM MgCl2, 1.8 mM CaCl2, 0.05% Tween-20, 10% glycerol, 4 C; conditions: protein: recombinant; tags: GST; label: 3' Alexa Fluor 647

GST-fused wild-type glycine-rich (GR) segment of TDP-43 M337V
ratio to parent ([1]; + CaMKIIα G4 RNA): 0.26
ratio to parent ([1]; + PSD-95 G4 RNA): 0.2

GST-fused wild-type glycine-rich (GR) segment of TDP-43 G287S
ratio to parent ([1]; + CaMKIIα G4 RNA): 0.52
ratio to parent ([1]; + PSD-95 G4 RNA): 0.31

B1: Cy3-PSD-Ax647 (structured_RNA)
RNA: GGGGAAAAGGGAGGGAUGGG
binding result (GST-RRM [2]): binds
binding result (TDP-43 WT full-length [3]): binds

B2: Cy3-CaMKII-Ax647 (structured_RNA)
RNA: UGGGGGGGGCGGGUGGGA
binding result (TDP-43 WT full-length [4]): binds
binding result (GST-RRM [5]): binds

B3: UG10-Ax647 (ssRNA)
RNA: UGUGUGUGUGUGUGUGUGUG
binding result (TDP-43 WT full-length [6]): no binding
binding result (GST-RRM [7]): binds
